The text below walks through data of PMC9164399, “The PRMT5-LSD1 axis confers Slug dual transcriptional activities and promotes breast cancer progression” (Journal of Experimental & Clinical Cancer Research : CR, 2022).

The target of one assay is T1, Flag-PRMT5 (human, UniProt O14744 1-637).
T1 construct: Protein arginine methyltransferase 5 (PRMT5), wild-type cDNA in lentiviral vector CD532A; 637 aa by the printed domain limits; also called Flag-tagged full-length (FL) PRMT5; PRMT5-FL; source: HEK293T, co-expressed, in lysate; purified from HEK293T cells (for the GST pull-down)
T1 sequence (O14744 whole entry, the tested form may be a part): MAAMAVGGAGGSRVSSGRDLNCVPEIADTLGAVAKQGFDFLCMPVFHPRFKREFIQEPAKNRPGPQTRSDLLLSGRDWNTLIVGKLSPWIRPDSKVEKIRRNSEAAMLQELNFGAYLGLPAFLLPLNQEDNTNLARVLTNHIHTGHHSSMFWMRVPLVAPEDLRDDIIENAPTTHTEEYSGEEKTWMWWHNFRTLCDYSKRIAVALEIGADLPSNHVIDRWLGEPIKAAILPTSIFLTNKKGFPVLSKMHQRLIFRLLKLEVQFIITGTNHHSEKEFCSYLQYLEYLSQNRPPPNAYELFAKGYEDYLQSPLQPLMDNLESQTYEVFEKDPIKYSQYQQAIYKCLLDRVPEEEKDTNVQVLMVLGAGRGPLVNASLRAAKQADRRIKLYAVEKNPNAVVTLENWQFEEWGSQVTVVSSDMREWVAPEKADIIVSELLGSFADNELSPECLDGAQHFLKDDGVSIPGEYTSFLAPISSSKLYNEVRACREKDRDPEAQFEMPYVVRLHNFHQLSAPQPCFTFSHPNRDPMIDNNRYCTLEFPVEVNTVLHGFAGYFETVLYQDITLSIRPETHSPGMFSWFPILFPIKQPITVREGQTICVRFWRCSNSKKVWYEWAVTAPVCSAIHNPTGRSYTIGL
Put plainly: pull-down; GST fusion proteins on glutathione-Sepharose 4B beads mixed with Flag-tagged proteins purified from HEK293T cells, 2 h at 4 °C; washed with 50 mM Tris-HCl pH 8.0, 0.2% NP-40, 150 mM NaCl, 2 mM EDTA; immunoblot. Particulars: both partners purified. (A western blot detects proteins with antibodies after separation by electrophoresis.)

For a further assay, the target named is GST-fused LSD1 (human, UniProt O60341-2 1-876). Described as above. Particulars: both partners purified.

B1: GST-fused Slug (natural protein, human, UniProt O43623 1-268, looked up)
chain: MPRSFLVKKHFNASKKPNYSELDTHTVIISPYLYESYSMPVIPQPEILSSGAYSPITVWTTAAPFHAQLPNGLSPLSGYSSSLGRVSPPPPSDTSSKDHSGSESPISDEEERLQSKLSDPHAIEAEKFQCNLCNKTYSTFSGLAKHKQLHCDAQSRKSFSCKYCDKEYVSLGALKMHIRTHTLPCVCKICGKAFSRPWLLQGHIRTHTGEKPFSCPHCNRAFADRSNLRAHLQTHSDVKKYQCKNCSKTFSRMSLLHKHEESGCCVAH
notes: Slug (SNAI2), cDNA in the bacterial expression vector pGEX-KG; also called GST-Slug
For the molecule B1, in the assay with Flag-PRMT5, the binding result is recorded as “binds”.

B2: Flag-Slug (natural protein)
chain: MPRSFLVKKHFNASKKPNYSELDTHTVIISPYLYESYSMPVIPQPEILSSGAYSPITVWTTAAPFHAQLPNGLSPLSGYSSSLGRVSPPPPSDTSSKDHSGSESPISDEEERLQSKLSDPHAIEAEKFQCNLCNKTYSTFSGLAKHKQLHCDAQSRKSFSCKYCDKEYVSLGALKMHIRTHTLPCVCKICGKAFSRPWLLQGHIRTHTGEKPFSCPHCNRAFADRSNLRAHLQTHSDVKKYQCKNCSKTFSRMSLLHKHEESGCCVAH
notes: Slug (SNAI2), wild-type cDNA in lentiviral vector CD532A; 268 aa by the printed limits of the fragments; also called Flag-tagged Slug-FL; Flag-tagged Slug; source: HEK293T, expressed, in lysate; purified from HEK293T cells (for the GST pull-down)
Regarding B2, in the assay with GST-fused LSD1, the binding result is reported as “binds”.
